The target of the assay is KS3AT3 (homodimeric KS-AT didomain fragment of DEBS module 3). The assay is described as follows: cryo-EM structure.

The substance “ACP3 (standalone acyl carrier protein of DEBS module 3), holo form (domain or fragment)” came in with a percent of KS3AT3 homodimer particles with one ACP (% of particles) of 50.3, a percent of KS3AT3 homodimer particles with two ACPs (% of particles) of 24.7 and a percent of KS3AT3 homodimer particles with zero ACPs (% of particles) of 25.
